Reference: PMC12859517

Experiments:
[1] = target: Full-length MctBsm (MctB of M. smegmatis) (M. smegmatis)
[2] = target: Full-length MctBsm (MctB of M. smegmatis) (M. smegmatis); assay: SDS-PAGE under mild conditions with Western blot; 0.1% SDS in loading buffer, no reducing agent, not boiled, run in an ice bath; protein purified in OPOE; gel slices eluted with OPOE and run again

Full-length MctBsm (MctB of M. smegmatis) (natural protein)
channel insertions in lipid bilayer experiments (DphPC, 1 M KCl, 10 mM Hepes pH 7.0, 100 mV), purified MctBsm before fractionation [1]: 20 pS | stoichiometry N [2]: > 2
